The values below come from patent US9976167B2, “Group of glycosyltransferases and use thereof” (Shanghai Institutes For Biological Sciences, Chinese …, priority 2012, dated 2018).

Holding throughout (assay type): biochemical
Data set [1] in a line: Glycosyltransfering reaction with crude enzyme, substrate Rh2. The note with it: crude enzymes of Example 21 (E. coli expression products); 35° C., 12 hrs; TLC.
Data set [2] in a line: Glycosyltransfering reaction with crude enzyme, substrate F2. To be noted: crude enzymes of Example 21 (E. coli expression products); 35° C., 12 hrs; TLC. The method, then:
(§1) According to the method as in Example 4, the cell lysate of recombinant yeasts expressing gGT13 and gGT30 were used to catalyze PPD and PPT.
(§2) The lysate supernatant of the recombinant yeast expressing empty vectors was used as control. The reaction was conducted under 35° C. for 12 hrs, and then stopped by adding 100 μL of butanol. The product were extracted, dried in vacuum, and dissolved in methanol.
(§3) The glycosyltransfering reactions of ginsenosides Rh2 and F2 were catalyzed by using the lysate supernatant of the recombinant yeasts expressing 3GT1, 3GT2, 3GT3 and 3GT4 as crude enzymes. The 100 μL reaction system is shown as Table 3. The reaction was conducted under 35° C. for 12 hrs, and then stopped by adding 100 μL of butanol. The product were extracted, dried in vacuum, and dissolved in methanol.

A short description of data set [3]: Glycosyltransfering activities on ginsengenins and saponins: glycosylation site and specificity (summary). The note with it: for glycosylation site: The first glycosyl at C-3 / glycosylation site: C6 / glycosylation site: C20: Table 2, tetracyclic triterpenoid substrates; for extension of carbohydrate chain: crude enzyme: lysate supernatant of recombinant yeast, UDP-glucose, 35° C., 12 hrs, TLC. The procedure: More than 100 predicted cDNA sequences of glycosyltransferases were extracted from the published expression profile data of the Panax plant. 60 cDNAs with full length were cloned, expressed, and subjected to the analysis of glycosyltransfering reaction.
(§4) The lysate supernatant of the recombinant yeasts expressing the empty vector was used as control.
(§5) The reaction was conducted under 35° C. for 12 hrs, then stopped by adding 100 μL of butanol. The product were extracted, dried in vacuum, and dissolved in methanol.
(§6) The glycosyltransfering reactions of ginsenosides and ginsengenins were catalyzed by using the lysis supernatant of the recombinant yeasts expressing 3GT1, 3GT2, 3GT3 and 3GT4 as crude enzymes. The lysis supernatant of recombinant E. coli expressing empty vectors was used as control. The 100 μL reaction system is shown as Table 3. The reaction was conducted under 35° C. for 12 hrs, then stopped by adding 100 μL of butanol. The product were extracted, dried in vacuum, and dissolved in methanol.
as §2, §3

Data set [4] in a line: Glycosyltransfering reaction with crude enzyme, substrate PPD. The note with it: for glycosylation of C20-OH of PPD (product CK): crude enzyme: lysate supernatant of recombinant yeast, UDP-glucose. The procedure: as §4, §5
(§7) The reaction products were first detected by thin layer chromatography (TLC).
(§8) The converted products of gGT25 were further identified by HPLC (FIG. 10 and FIG. 11). The retention time of peak 2 was identical to that of the CK standard sample; the retention time of peak 3 was identical to that of PPD. […] Peak 1, also present in the profile of the negative control, indicated its irrelevance to the conversion of PPD. 3 peaks were shown in FIG. 11, the retention time of peak 1 was identical to that of F1 standard sample and peak 3 was identical to that of PPT. […] Peak 2, also present in the profile of the negative control, indicated its irrelevance to the conversion of PPT.
as §1
The cell lysis supernatant of the recombinant E. coli was used as crude enzyme to conduct the glycosyltransfering reaction, and the reaction condition was identical to that of Example 4.
The reaction was conducted under 35° C. for 12 hrs. 100 μL of butanol was added to stop the reaction and the products were extracted. Upon vacuum drying, the product was dissolved by methanol. TLC was first used to detect the reaction product.
as §6
The reaction was conducted under 35° C. for 12 hrs, and then stopped by adding 100 μL of butanol. The product were extracted, dried in vacuum, and dissolved in methanol. The reaction products were first detected by thin layer chromatography (TLC) (FIG. 35).

Data set [5] is described as follows: Glycosyltransfering reaction with crude enzyme, substrate Rh2. To be noted: crude enzyme: lysate supernatant of recombinant yeast; UDP-glucose, 35° C., 12 hrs; TLC. The procedure:
as §4, §5
(§9) The reaction products were first detected by thin layer chromatography (TLC). […]
as §2, §3

Data set [6] can be described thus: Glycosyltransfering reaction with crude enzyme, substrate Rh1. The note with it: crude enzyme: lysate supernatant of recombinant yeast; UDP-glucose, 35° C., 12 hrs; TLC. The procedure:
as §4, §5, §9

The nature of data set [7]: Glycosyltransfering reaction with crude enzyme, substrate PPT. To be noted: for glycosylation of C6-OH of PPT (product Rg1 or Rh1) / glycosylation of C20-OH of PPT (product F1): crude enzyme: lysate supernatant of recombinant yeast, UDP-glucose, 35° C., 12 hrs, TLC. The method, then: as §4, §5, §7, §8, §1, §6
Data set [8] can be described thus: Glycosyltransfering reaction with crude enzyme, substrate Rf. To be noted: crude enzyme: lysate supernatant of recombinant yeast; UDP-glucose, 35° C., 12 hrs; TLC. The procedure: as §4, §5, §7
A short description of data set [9]: Glycosyltransfering reaction with crude enzyme, substrate Rg2. The note with it: crude enzyme: lysate supernatant of recombinant yeast; UDP-glucose, 35° C., 12 hrs; TLC. The procedure:
as §4, §5, §7

A short description of data set [10]: Glycosyltransfering reaction with crude enzyme, substrate DM. The note with it: crude enzyme: lysate supernatant of recombinant yeast; UDP-glucose, 35° C., 12 hrs; TLC. The method, then: as §4, §5, §7, §6
Data set [11] in a line: Glycosyltransfering reaction with crude enzyme, substrate Rg3. To be noted: crude enzyme: lysate supernatant of recombinant yeast; UDP-glucose, 35° C., 12 hrs; TLC. The procedure: as §4, §5, §9
The mark [12] stands for this setting: crude enzyme from recombinant yeast, HPLC.

Numbering of substitutions follows the chain as printed.

B1: gGT29-5: glycosyltransferase protein with 446 amino acids, SEQ ID NO.: 57 (protein)
chain: MDNQKGRISIVMLPFLAHGHISPFFELAKHLSKRNCNIFLCSTPINLSSIKNRISDKDSSASIKLVELHLPSSPDLPPHYHTTNGLPSHLMVPLRNAFETAAPTFSEILKTLNPDLLIYDFNPSWAPEIASSHNIPAVCFIIGGAASFSMSLHSFKNPGEKYPFLDFDDNSNITPEPPSADNMKLLLDFMTCFERSCDIILIKSFRELEGKYIDLLSTLSDKTLVPVGPLVQDPMGHNEDPKTEQIINWLDKRAESTVVFVCFGSEYFLSNEELEEVAIGLEISMVNFIWAVRLIEGEKKGVLPEGFVQRVGDRGLVVEGWAPQARILGHSSTGGFVSHCGWSSIAESMKFGVPVIAMARHLDQPLNGKLAAEVGVGMEVVRDENGKYKREGIAEVIRKVVVEKSGEVIRRKARELSEKMKEIGEQLIDRAVEELVQICKKKKDEQ
modifications: Panax ginseng; gGT29-5
Consider B1, for which the “extension of C3 glycosyl of Rh2 by one more glycosyl (product Rg3)” value in data set [1] was “could not be catalyzed”. Besides, the “extension of C3 glycosyl of F2 by one more glycosyl (product Rd)” value in data set [2] is given as “could be extended by one more glycosyl”. The “glycosylation site: The first glycosyl at C-3” value in [3] was “✓”.

B2: gGT25: glycosyltransferase protein with 475 amino acids, amino acid sequence SEQ ID NO.: 2, cloned from P. ginseng cDNA (protein)
chain: MKSELIFLPAPAIGHLVGMVEMAKLFISRHENLSVTVLIAKFYMDTGVDNYNKSLLTNPTPRLTIVNLPETDPQNYMLKPRHAIFPSVIETQKTHVRDIISGMTQSESTRVVGLLADLLFINIMDIANEFNVPTYVYSPAGAGHLGLAFHLQTLNDKKQDVTEFRNSDTELLVPSFANPVPAEVLPSMYVDKEGGYDYLFSLFRRCRESKAIIINTFEELEPYAINSLRMDSMIPPIYPVGPILNLNGDGQNSDEAAVILGWLDDQPPSSVVFLCFGSYGSFQENQVKEIAMGLERSGHRFLWSLRPSIPKGETKLQLKYSNLKEILPVGFLDRTSCVGKVIGWAPQVAVLGHESVGGFLSHCGWNSTLESVWCGVPVATWPMYGEQQLNAFEMVKELGIAVEIEVDYKKDYFNMKNDFIVRAEEIETKIKKLMMDENNSEIRKKVKEMKEKSRAAMSENGSSYNSLAKLFEEIM
modifications: Panax ginseng; gGT25
For B2, the “transformation of PPD into CK” value in data set [4] (setting [12]) is on record as “substantially transformed”. The “transformation of PPD into CK” value in data set [4] (crude enzyme: cell lysis supernatant of recombinant E. coli, 35° C., 12 hrs, TLC) was “could transform PPD into CK”. In addition, in [4] (35° C., 12 hrs, TLC), the “glycosylation of C20-OH of PPD (product CK)” value (“glycosylation of C20-OH of PPD” for short) is “glycosylated the C20-OH”. For the same molecule, the “glycosylation of C20-OH of Rh2 (product F2)” value (“glycosylation of C20-OH of Rh2” for short) in data set [5] is “further glycosylated at C20-OH”. Further, the “glycosylation of C20-OH of Rh1” value in data set [6] is on record as “could not be catalyzed”. Besides, in data set [3], the “glycosylation site: C6” value was “✓”, the “glycosylation site: C20” value is “✓” and the “extension of carbohydrate chain” value was “could not catalyze”. For the same molecule, in data set [7] (setting [12]), the “transformation of PPT into F1” value was “substantially transformed”. Besides, in [7], the “glycosylation of C6-OH of PPT (product Rg1 or Rh1)” value (“glycosylation of C6-OH of PPT” for short) was “C6-OH could be further glycosylated” and the “glycosylation of C20-OH of PPT (product F1)” value (“glycosylation of C20-OH of PPT” below) was “glycosylated the C20-OH”. In addition, in data set [8], the “glycosylation of C20-OH of Rf” value is on record as “could not be catalyzed”. Also, the “glycosylation of C20-OH of Rg2” value in data set [9] was “could not be catalyzed”. The “glycosylation of C20-OH of DM (product 20-O-β-(D-glucopyranosyl)-dammarendiol II)” value (“glycosylation of C20-OH of DM” below) in data set [10] is “could also glycosylate C20-OH”. The “glycosylation of C20-OH of Rg3 (product Rd)” value (“glycosylation of C20-OH of Rg3” for short) in data set [11] is recorded as “further glycosylated at C20-OH”.

B3: gGT25-3: glycosyltransferase protein with 475 amino acids, SEQ ID NO.: 18 (protein)
chain: B2 chain with R110Q
modifications: Panax ginseng; gGT25-3
Take B3: in data set [4] (35° C., 12 hrs, TLC), the “glycosylation of C20-OH of PPD” value is given as “glycosylated the C20-OH”. Moreover, in data set [5], the “glycosylation of C20-OH of Rh2” value is given as “further glycosylated at C20-OH”. For the same molecule, in [6], the “glycosylation of C20-OH of Rh1” value was “could not be catalyzed”. In addition, in [3], the “glycosylation site: C6” value is on record as “✓”, the “glycosylation site: C20” value is “✓” and the “extension of carbohydrate chain” value was “could not catalyze”. In addition, in data set [7], the “glycosylation of C6-OH of PPT” value was “C6-OH could be further glycosylated” and the “glycosylation of C20-OH of PPT” value is recorded as “glycosylated the C20-OH”. For the same molecule, the “glycosylation of C20-OH of Rf” value in data set [8] is given as “could not be catalyzed”. Further, in data set [9], the “glycosylation of C20-OH of Rg2” value was “could not be catalyzed”. The “glycosylation of C20-OH of DM” value in [10] is given as “could also glycosylate C20-OH”. Moreover, the “glycosylation of C20-OH of Rg3” value in data set [11] is “further glycosylated at C20-OH”.

B4: gGT25-1: glycosyltransferase protein with 475 amino acids, SEQ ID NO.: 16 (protein)
chain: B2 chain with S281T, K324E, S355A, K410N, D411E, K416N, N438K, A455L
modifications: Panax ginseng; gGT25-1
Regarding B4, the “glycosylation of C20-OH of PPD” value in [4] (35° C., 12 hrs, TLC) was “glycosylated the C20-OH”. Moreover, the “glycosylation of C20-OH of Rh2” value in [5] is listed as “further glycosylated at C20-OH”. In addition, in [6], the “glycosylation of C20-OH of Rh1” value is on record as “could not be catalyzed”. Besides, in data set [3], the “glycosylation site: C6” value is listed as “✓”, the “glycosylation site: C20” value is recorded as “✓” and the “extension of carbohydrate chain” value is “could not catalyze”. For the same molecule, in data set [7], the “glycosylation of C6-OH of PPT” value is given as “C6-OH could be further glycosylated” and the “glycosylation of C20-OH of PPT” value is recorded as “glycosylated the C20-OH”. The “glycosylation of C20-OH of Rf” value in data set [8] is given as “could not be catalyzed”. Moreover, the “glycosylation of C20-OH of Rg2” value in data set [9] is “could not be catalyzed”. In data set [10], the “glycosylation of C20-OH of DM” value is recorded as “could also glycosylate C20-OH”. Besides, in data set [11], the “glycosylation of C20-OH of Rg3” value was “further glycosylated at C20-OH”.

B5: gGT29-7: glycosyltransferase protein with 446 amino acids, SEQ ID NO.: 61 (protein)
chain: MDNQKGRISIALLPFLAHGHISPFFELAKQLAKRNCNVFLCSTPINLSSIKNRVSDKDSSASIKLVELHLPSSPDLPPHYHTTNGLPSHLMIPLRNAFDTAGPTFSEILKTLNPDLLIYDFNPSWAPEIASSHNIPAVCFIIGGAASSSMSLHSFKNPGEKYPFLDFDDNSNITPEPPSADNMKLLINFMTCFERSCDIILIKSFRELEGKYFDFFSTLSDKTLVPVGPLVQDPMGHNEDPKTEQFINWLDKRAESTVVFVCFGSECFLSNEELEEVAIGLEISMVNFIWAVRLIEGEKKGVLPEGFVQRVGDRGLVVEEWAPQARILGHSSTGGFVSHCGWNSITESMKFGVPVIAMARHFDQPLNGKLAAEVGVGMEVVRDENGKYKREGIAEVIRKVVVEKSGEVIRRKARELSEKMKEKGEQEIDRVVEELVQICKKKKDEQ
modifications: Panax ginseng; gGT29-7
As for B5, the “extension of C3 glycosyl of Rh2 by one more glycosyl (product Rg3)” value in [1] was “could not be catalyzed”. Besides, in data set [2], the “extension of C3 glycosyl of F2 by one more glycosyl (product Rd)” value was “could be extended by one more glycosyl”. In addition, the “glycosylation site: The first glycosyl at C-3” value in [3] is recorded as “✓”.
